Assay results from patent US6617117B1, “MAP kinases: polypeptides, polynucleotides and uses thereof” (Medical Research Council, priority 1996, dated 2003).

T1: rat SAPK3 (Rattus norvegicus, UniProt Q63538)
T1 construct: made in house; host or cells: E. coli BL21 (DE3)
T1 sequence (Q63538 1-367): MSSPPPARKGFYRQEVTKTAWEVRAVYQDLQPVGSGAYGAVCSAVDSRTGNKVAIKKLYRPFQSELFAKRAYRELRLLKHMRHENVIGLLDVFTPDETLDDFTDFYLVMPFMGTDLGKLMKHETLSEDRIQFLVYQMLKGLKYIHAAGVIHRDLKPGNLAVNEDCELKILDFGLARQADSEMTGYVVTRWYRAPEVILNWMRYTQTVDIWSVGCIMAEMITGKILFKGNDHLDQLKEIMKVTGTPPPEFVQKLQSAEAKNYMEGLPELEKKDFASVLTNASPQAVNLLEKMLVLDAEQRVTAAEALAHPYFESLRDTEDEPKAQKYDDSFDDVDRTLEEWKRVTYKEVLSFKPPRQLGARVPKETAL

T2: SAPK4 (Homo sapiens, UniProt O15264)
T2 sequence (O15264 1-365): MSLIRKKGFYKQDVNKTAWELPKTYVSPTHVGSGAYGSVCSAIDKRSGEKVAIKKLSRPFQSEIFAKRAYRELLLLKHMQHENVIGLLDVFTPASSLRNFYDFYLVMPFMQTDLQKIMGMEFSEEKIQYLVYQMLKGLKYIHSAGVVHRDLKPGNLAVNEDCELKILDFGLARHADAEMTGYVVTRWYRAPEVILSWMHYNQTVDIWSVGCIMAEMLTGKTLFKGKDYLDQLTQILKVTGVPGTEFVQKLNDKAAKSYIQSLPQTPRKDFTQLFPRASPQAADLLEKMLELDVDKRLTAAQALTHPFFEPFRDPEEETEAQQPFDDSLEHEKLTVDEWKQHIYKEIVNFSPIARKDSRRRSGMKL

T3: SAPK3 (Rattus norvegicus, UniProt Q63538)
T3 sequence (Q63538 1-367): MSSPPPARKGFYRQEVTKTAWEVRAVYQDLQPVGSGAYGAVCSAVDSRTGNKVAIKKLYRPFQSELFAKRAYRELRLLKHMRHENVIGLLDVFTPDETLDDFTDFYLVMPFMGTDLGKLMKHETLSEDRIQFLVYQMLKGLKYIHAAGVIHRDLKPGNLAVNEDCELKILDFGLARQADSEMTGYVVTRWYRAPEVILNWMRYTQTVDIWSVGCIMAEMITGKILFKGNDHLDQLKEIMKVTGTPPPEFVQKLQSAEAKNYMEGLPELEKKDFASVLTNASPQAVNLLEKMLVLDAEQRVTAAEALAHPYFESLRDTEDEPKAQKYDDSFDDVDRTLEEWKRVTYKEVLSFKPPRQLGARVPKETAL

B1: SAP-1: transcription factor activation domain linked to GST, kinase substrate (protein)
chain: TPSPPLSSHPDIDTDIDSVASQPMELPENLSLEPKDQDSVLLEKDKVNNSSRSKKPKGLELAPTLVITSSDPSPLGILSPSLPTASLTPAFFSQTPIILTPSPLLSSIHFWSTLSPVAPLSPARLQGANTLFQFPSVLNSHGPFTLSGLDGPSTPGPFSPDLQKT
modifications: left off: a dimerising Fc or GST
B2: c-Jun: transcription factor activation domain linked to GST, kinase substrate (protein)
chain: MTAKMETTFYDDALNASFLPSESGPYGYSNPKILKQSMTLNLADPVGSLKPHLRAKNSDLLTSPDVGLLKLASPELERLIIQSSNGHITTTPTPTQFLCPKNVTDEQEGFAEGFVRALAELHSQNTLPSVTSAAQPVNGAGMVAPAVASVAGGSGSGGFSASLHSEPPVYANLSNFNPGALSSGGGAPSYGAAG
modifications: left off: a dimerising Fc or GST
B3: MAPKAP-K3: MAP kinase-activated protein kinase-3, GST fusion used as kinase substrate (protein)
chain: MDGETAEEQGGPVPPPVAPGGPGLGGAPGGRREPKKYAVTDDYQLSKQVLGLGVNGKVLECFHRRTGQKCALKLLYDSPKARQEVDHHWQASGGPHIVCILDVYENMHHGKRCLLIIMECMEGGELFSRIQERGDQAFTEREAAEIMRDIGTAIQFLHSHNIAHRDVKPENLLYTSKEKDAVLKLTDFGFAKETTQNALQTPCYTPYYVAPEVLGPEKYDKSCDMWSLGVIMYILLCGFPPFYSNTGQAISPGMKRRIRLGQYGFPNPEWSEVSEDAKQLIRLLLKTDPTERLTITQFMNHPWINQSMVVPQTPLHTARVLQEDKDHWDEVKEEMTSALATMRVDYDQVKIKDLKTSNNRLLNKRRKKQAGSSSASQGCNNQ
modifications: left off: a dimerising Fc or GST
B4: SKK3: SAP kinase kinase 3, upstream activator of SAPK2a, SAPK2b, SAPK3 and SAPK4 (protein)
chain: MSQSKGKKRNPGLKIPKEAFEQPQTSSTPPRDLDSKACISIGNQNFEVKADDLEPIMELGRGAYGVVEKMRHVPSGQIMAVKRIRATVNSQEQKRLLMDLDISMRTVDCPFTVTFYGALFREGDVWICMELMDTSLDKFYKQVIDKGQTIPEDILGKIAVSIVKALEHLHSKLSVIHRDVKPSNVLINALGQVKMCDFGISGYLVDSVAKTIDAGCKPYMAPERINPELNQKGYSVKSDIWSLGITMIELAILRFPYDSWGTPFQQLKQVVEEPSPQLPADKFSAEFVDFTSQCLKKNSKERPTYPELMQHPFFTLHESKGTDVASFVKLILGD
B5: ATF2: transcription factor activation domain linked to GST, kinase substrate (protein)
chain: MSDDKPFLCTAPGCGQRFTNEDHLAVHKHKHEMTLKFGPARNDSVIVADQTPTPTRFLKNCEEVGLFNELASPFENEF
modifications: left off: a dimerising Fc or GST

How the values were obtained:
rat SAPK3 = target: T1, rat SAPK3; assay: Substrate specificity: rate of phosphorylation by SAPK3 (Tables 1 and 2); type: biochemical; conditions: for Rate of phosphorylation relative to MBP, SAPK3: substrate 1 μM, SAPK 0.1 U/ml; for Rates of phosphorylation relative to MBP, SAPK3: substrate 1 μm, rat SAPK3 data taken from Example 4 and Cuenda et al (1997)
Protocol: (§1) Experiments were carried out with the Xenopus homologue of SAPK2a, human SAPK2b and human SAPK4. The SAPKs were activated in vitro (FIG. 7) and phosphorylation of each protein was studied at a SAPK concentration of 0.15 U/ml. The results are presented as means±SEM of six determinations (two separate experiments). The data for rat SAPK3 are taken from Example 4 and Cuenda et al (1997).
(§2) Protein kinase assays. SAPK3 was assayed routinely by the phosphorylation of MBP. […] After 20 min at 30° C.
(§3) Table 2. Comparison of substrate specificities of SAPK2 and SAPK3. SAPK2 and SAPK3 were activated in vitro (FIG. 15) and phosphorylation of each protein studied at a SAPK concentration of 0.1 U/ml.

SAPK4 [1] = target: T2, SAPK4; assay: Substrate specificity: rate of phosphorylation by SAPK4 (Table 1); type: biochemical; parameters: made in house; host or cells: E. coli BL21(DE3); conditions: substrate 1 μm; SAPK 0.15 U/ml; means ± SEM of six determinations
Protocol: as §1
SAPK4 is assayed routinely by the phosphorylation of MBP. […] After washing and drying the papers (Alessi et al, 1995 Meth. Enzymol. 255, 279-290) ^32P radioactivity incorporated into MBP is measured.

[2] = target: T4, SAPK2 (Xenopus homologue) (Xenopus laevis, UniProt P47812); assay: Substrate specificity: rate of phosphorylation by SAPK2 (Table 2); type: biochemical; conditions: substrate 1 μM; SAPK 0.1 U/ml
T4 construct: made in house; host or cells: E. coli
T4 sequence (P47812 whole entry): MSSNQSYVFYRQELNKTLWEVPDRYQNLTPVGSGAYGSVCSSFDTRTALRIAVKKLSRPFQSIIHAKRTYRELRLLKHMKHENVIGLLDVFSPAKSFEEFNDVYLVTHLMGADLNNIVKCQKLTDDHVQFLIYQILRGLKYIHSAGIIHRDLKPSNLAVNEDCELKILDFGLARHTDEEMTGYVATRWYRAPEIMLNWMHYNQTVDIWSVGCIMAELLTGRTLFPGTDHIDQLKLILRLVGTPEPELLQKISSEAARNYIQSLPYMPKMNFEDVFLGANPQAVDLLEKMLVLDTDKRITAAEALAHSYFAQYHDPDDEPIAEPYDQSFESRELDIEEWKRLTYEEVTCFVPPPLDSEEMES
Protocol: as §2, §3

[3] = target: T5, Xenopus homologue of SAPK2a (Xenopus laevis, UniProt P47812); assay: Substrate specificity: rate of phosphorylation by SAPK2a (Table 1); type: biochemical; conditions: substrate 1 μm; SAPK 0.15 U/ml; means ± SEM of six determinations
T5 construct: made in house; host or cells: E. coli
T5 sequence (P47812 whole entry): as above
Protocol: as §1

human SAPK2b = target: T6, human SAPK2b (Homo sapiens, UniProt Q15759); assay: Substrate specificity: rate of phosphorylation by SAPK2b (Table 1); type: biochemical; conditions: substrate 1 μm; SAPK 0.15 U/ml; means ± SEM of six determinations
T6 construct: a number of SAPK2b clones, some of which were full-length; made in house; host or cells: E. coli BL21(DE3)
T6 sequence (Q15759 whole entry): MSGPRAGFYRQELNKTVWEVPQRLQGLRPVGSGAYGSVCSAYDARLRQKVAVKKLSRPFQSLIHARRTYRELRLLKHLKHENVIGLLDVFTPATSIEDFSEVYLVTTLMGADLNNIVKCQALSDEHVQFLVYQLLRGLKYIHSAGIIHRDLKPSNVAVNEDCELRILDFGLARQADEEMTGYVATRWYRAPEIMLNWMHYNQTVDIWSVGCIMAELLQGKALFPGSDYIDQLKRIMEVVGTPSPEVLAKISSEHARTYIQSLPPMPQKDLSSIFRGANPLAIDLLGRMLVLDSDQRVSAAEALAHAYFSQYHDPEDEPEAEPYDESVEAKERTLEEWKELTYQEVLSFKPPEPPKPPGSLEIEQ
Protocol: as §1

SAPK4 [4] = target: T2, SAPK4; assay: Co-transfection of SAPK4 with SKK3 into COS cells; type: cell-based; parameters: expressed in transfected cells; host or cells: COS1 cells, co-transfected with human SKK3; conditions: n=3
Protocol: For bacterial expression, the open reading frames of human cDNA clones hSAPK2B2, hSAPK32 and hSAPK412 were amplified by PCR and subcloned as EcoRI fragments into expression vector pGEX4T-1 (Pharmacia), followed by transformation into E. coli strain BL21(DE3). The transformed bacteria were grown to an absorbance of 0.6 at 600 nm and induced with 0.4 mM isopropyl-1-thio-β-galactopyranoside (IPTG). […] For expression of c-myc epitope-tagged SAPK4, PCR was used to introduce the nucleotide sequence encoding the amino acid sequence […] (SEQ. ID. NO: 4) at the carboxy-terminus of SAPK4, followed by a stop codon. The resulting EcoRI/NotI fragment was subcloned into the mammalian expression vector pcDNA3.1 (Invitrogen). […] PCR fragments were verified by DNA sequencing. Transfections into COS1 cells were done as described in Example 4 and Cuenda et al, 1997.
We have shown previously that SKK3 accounts for 95% and SKK2 for 5% of the SAPK2a activator detected after Mono S chromatography of lysates from KB cells that have been stressed in several ways or stimulated with IL1 (Cuenda et al, 1996; Meier et al, 1996). […] SKK3 was also the only activator of SAPK4 after subjecting KB cells to osmotic stress using sorbitol (data not shown). Further evidence that SKK3 can activate SAPK4 in vivo was obtained by co-transfection into COS cells. […]

SAPK3 = target: T3, SAPK3; assay: Co-transfection of SAPK3 with SKK3 into COS cells (FIG. 14); type: cell-based; parameters: expressed in transfected cells; host or cells: COS-1 cells (vector pSG5), alone or with human SKK3 or MEK kinase
Protocol: FIG. 14. SKK3 activates SAPK3 in transfected cells. COS-1 cells were transiently transfected with DNA expressing SAPK3 or co-transfected with either SKK3 or MEK kinase (MEKK). Cells were stimulated in DMEM for 15 min or with 0.5 M sorbitol. After stimulation and lysis, SAPK3 was immunoprecipitated from the cell lysates using an anti-SAPK3 antibody raised against the C-terminal 16 residues of SAPK3 (see Methods) and activity measured using MBP as the substrate.
Cell culture and transient transfections. 293, KB and COS-7 cells were cultured in Dulbecco's modified Eagles' Medium (DMEM) supplemented with 10% foetal calf serum, at 37° C., in an atmosphere of 5% CO2. Transfections of 293 cells were carried out using the calcium-phosphate method. Cells were split to a density of 2×106 per 10 cm dish, and after 12 h at 37° C., 10 μg of plasmid DNA in 0.45 ml of sterile water was added to 50 μl of sterile CaCl2, and then 0.5 ml of sterile buffer composed of 50 mM N,N-bis[2-hydroxyethyl]-2-aminoethanesulphonic acid/HCl pH 6.96, 0.28 M NaCl and 1.5 mM Na2HPO4 was added. The resulting mixture was vortexed for 1 min, allowed to stand at room temperature for 20 min, and then added dropwise to a 10 cm dish of 293 cells. The cells were placed in an atmosphere of 3% CO2 for 16 h at 37° C., then the medium was aspirated and replaced with new DMEM containing 10% foetal calf serum. […]

| Molecule | Rate of phosphorylation relative to MBP, SAPK3 (rat SAPK3) | Rates of phosphorylation relative to MBP, SAPK3 (rat SAPK3) [%] | Rates of phosphorylation relative to MBP, SAPK4 (SAPK4 [1]) [%] | Rate of phosphorylation relative to MBP, SAPK2 [2] | Rates of phosphorylation relative to MBP, SAPK2a [3] [%] | Rates of phosphorylation relative to MBP, SAPK2b (human SAPK2b) [%] | Elevation of SAPK4 activity by co-expression (SAPK4 [4]) [fold] | Elevation of SAPK3 activity by coexpression (SAPK3) [fold] | Greater activation of transfected SAPK3 by osmotic shock where cotransfected (SAPK3; osmotic shock) [fold] |
| --- | --- | --- | --- | --- | --- | --- | --- | --- | --- |
| B1 | 108 ± 15 | 108 ± 15 | 62 ± 5 | 55 ± 13 | 25 ± 1 | 27 ± 5 |  |  |  |
| B2 | 2 ± 1 | 2 ± 1 | 6 ± 2 | 2 ± 1 | 4 ± 1 | 7 ± 2 |  |  |  |
| B3 |  | 20 ± 6 | 18 ± 2 |  | 87 ± 10 | 66 ± 6 |  |  |  |
| B4 |  |  |  |  |  |  | 12.5±0.63 | 10 | 30 |
| B5 | 107 ± 20 | 107 ± 20 | 130 ± 2 | 86 ± 20 | 40 ± 2 | 62 ± 2 |  |  |  |
